{
  "source": "patent US10766960",
  "about": "(dated 2020)",
  "assay_in_all_cases": "SPR",
  "key": {"[1]": {"target": "T1, FcgRIIa R (human, UniProt P12318)", "T1 chain": "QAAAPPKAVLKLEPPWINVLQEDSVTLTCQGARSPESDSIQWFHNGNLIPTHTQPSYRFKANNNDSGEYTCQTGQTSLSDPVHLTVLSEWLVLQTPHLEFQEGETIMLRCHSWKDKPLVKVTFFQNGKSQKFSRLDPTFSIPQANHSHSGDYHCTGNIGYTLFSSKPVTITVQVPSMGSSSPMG"}, "[2]": {"target": "T2, FcgRIIIa F (human, UniProt P08637)", "T2 sequence (P08637 17-208)": "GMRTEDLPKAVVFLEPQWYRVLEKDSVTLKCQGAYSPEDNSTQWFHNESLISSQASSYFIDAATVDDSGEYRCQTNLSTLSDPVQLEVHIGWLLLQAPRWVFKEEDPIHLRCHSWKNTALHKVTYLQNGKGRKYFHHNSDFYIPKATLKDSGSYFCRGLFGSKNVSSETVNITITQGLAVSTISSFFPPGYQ"}, "[3]": {"target": "T3, FcgRIa (human, UniProt P12314)", "T3 chain": "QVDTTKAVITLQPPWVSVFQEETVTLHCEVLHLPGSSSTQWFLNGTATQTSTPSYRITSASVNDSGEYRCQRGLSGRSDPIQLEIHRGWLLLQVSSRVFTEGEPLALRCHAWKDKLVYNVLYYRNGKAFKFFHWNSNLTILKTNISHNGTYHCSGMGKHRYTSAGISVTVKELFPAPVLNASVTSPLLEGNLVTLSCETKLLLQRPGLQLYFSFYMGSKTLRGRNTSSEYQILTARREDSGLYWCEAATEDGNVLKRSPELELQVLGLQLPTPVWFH"}, "[4]": {"target": "FcgRIIIa V (human, UniProt P08637)", "sequence (P08637 17-208 F176V)": "as the sequence (P08637 17-208) above, with F160V counted along it"}, "[5]": {"target": "T4, FcgRIIb (human, UniProt P31994)", "T4 chain": "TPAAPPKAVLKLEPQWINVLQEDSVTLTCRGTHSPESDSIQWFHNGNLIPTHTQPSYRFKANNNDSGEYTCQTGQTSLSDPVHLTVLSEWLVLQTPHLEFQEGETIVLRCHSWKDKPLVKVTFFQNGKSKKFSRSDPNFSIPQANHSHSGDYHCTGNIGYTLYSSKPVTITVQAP"}, "[6]": {"target": "T5, FcgRIIa H (human, UniProt P12318)", "T5 chain": "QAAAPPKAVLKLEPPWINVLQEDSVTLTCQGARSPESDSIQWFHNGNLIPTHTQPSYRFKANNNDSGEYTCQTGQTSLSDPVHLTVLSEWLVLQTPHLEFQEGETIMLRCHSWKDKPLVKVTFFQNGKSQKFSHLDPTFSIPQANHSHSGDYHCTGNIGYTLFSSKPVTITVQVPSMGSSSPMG"}, "[7]": {"target": "T2, FcgRIIIa F", "remark": "listed apart in the source"}, "[8]": {"target": "T2, FcgRIIIa F", "remark": "listed apart in the source"}},
  "note": "Read-outs that look alike come from different tables or passages of the source.",
  "data": [
    {"binder": "H240-Kn072/H240-Hl076/L73-k0 (antibody) chain 1: QDQLVQSGAEVKKPGASVKVSCKASGFNIKDTYIQWVRQAPGQGLEWMGRIDPLRKQTKYREKFEGRVTITADTSTNTAYMELSSLRSEDTAVYYCVRSGREFDYWGQGTLVTVSSASTKGPSVFPLAPSSKSTSGGTAALGCLVKDYFPEPVTVSWNSGALTSGVHTFPAVLQSSGLYSLSSVVTVPSSSLGTQTYICNVNHKPSNTKVDKKVEPKSCDKTHTCPPCPAPEYYWGPSVFLFPPKPKDTLMISRTPEVTCVVVDVSDEEPEVKFNWYVDGVEVHNAKTKPREEQYNATYRVVSVLTVLHQDWLNGKEYKCKVSNKALPAPIEKTISKAKGQPREPQVCTLPPSRDELTKNQVSLWCLVKGFYPSDIAVEWESNGQPENNYKTTPPVLDSDGSFFLYSKLTVDKSRWQQGNVFSCSVMHEALHNHYTQKSLSLSP chain 2: QDQLVQSGAEVKKPGASVKVSCKASGFNIKDTYIQWVRQAPGQGLEWMGRIDPLRKQTKYREKFEGRVTITADTSTNTAYMELSSLRSEDTAVYYCVRSGREFDYWGQGTLVTVSSASTKGPSVFPLAPSSKSTSGGTAALGCLVKDYFPEPVTVSWNSGALTSGVHTFPAVLQSSGLYSLSSVVTVPSSSLGTQTYICNVNHKPSNTKVDKKVEPKSCDKTHTCPPCPAPELLGGPSVFLFPPKPKDTLMISRTPEVTCVVVDVSHEEPEVKFNWYVDGVEVHNAKTKPREEQYNSTYRVVSVLTVLHQDWLNGKEYKCKVSNDALPMPIEETISKAKGQPREPQVYTLPPSRCELTKNQVSLSCAVKGFYPSDIAVEWESNGQPENNYKTTPPVLDSDGSFFLVSKLTVDKSRWQQGNVFSCSVMHEALHNHYTQKSLSLSP chain 3: DIQMTQSPSSLSASVGDRVTITCRASQDIHKYIAWYQQKPGQAPRLLIQYTSTLQPGVPSRFSGSGSGTDYTFTISSLQPEDIATYYCLQYEQLRTFGGGTKVEIKRTVAAPSVFIFPPSDEQLKSGTASVVCLLNNFYPREAKVQWKVDNALQSGNSQESVTEQDSKDSTYSLSSTLTLSKADYEKHKVYACEVTHQGLSSPVTKSFNRGEC", "values": [
      {"measurement": "Kd", "setting": "[1]", "value": 710, "unit": "nM"},
      {"measurement": "Kd", "setting": "[2]", "value": 2.6, "unit": "nM"},
      {"measurement": "Kd", "setting": "[3]", "value": 0.1, "unit": "nM"},
      {"measurement": "Kd", "setting": "[4]", "value": 1, "unit": "nM"},
      {"measurement": "Kd", "setting": "[5]", "value": 5.7, "unit": "µM"},
      {"measurement": "Kd", "setting": "[6]", "value": 130, "unit": "nM"}
    ]},
    {"binder": "GpH7-A53/GpH7-B78/GpL16-k0 (antibody) chain 1: QVQLVQSGAEVKKPGASVTVSCKASGYTFTDYEMHWIRQPPGEGLEWIGAIDPKTGDTAYSESFQDRVTLTADKSTSTAYMELSSLTSEDTAVYYCTRFYSYTYWGQGTLVTVSSASTKGPSVFPLAPSSKSTSGGTAALGCLVKDYFPEPVTVSWNSGALTSGVHTFPAVLQSSGLYSLSSVVTVPSSSLGTQTYICNVNHKPSNTKVDKKVEPKSCDKTHTCPPCPAPELLGGPDVFLFPPKPKDTLMISRTPEVTCVVVDVSHEDPEVKFNWYVDGVEVHNAKTKPREEQYNSTYRVVSVLTVLHQDWLNGKEYKCKVSNKALPAPIEKTISKAKGQPREPQVYTLPPSRKELTKNQVSLTCLVKGFYPSDIAVEWESNGQPENNYKTTPPVLDSDGSFFLYSKLTVDKSRWQQGNVFSCSVMHEALHNRYTQKSLSLSP chain 2: QVQLVQSGAEVKKPGASVTVSCKASGYTFTDYEMHWIRQPPGEGLEWIGAIDPKTGDTAYSESFQDRVTLTADKSTSTAYMELSSLTSEDTAVYYCTRFYSYTYWGQGTLVTVSSASTKGPSVFPLAPSSKSTSGGTAALGCLVKDYFPEPVTVSWNSGALTSGVHTFPAVLQSSGLYSLSSVVTVPSSSLGTQTYICNVNHKPSNTKVDKKVEPKSCDKTHTCPPCPAPELLGGPDVFLFPPKPKDTLMISRTPEVTCVVVDVSHEDPEVKFNWYVDGVEVHNAKTKPREEQYNSTYRVVSVLTVLHQDWLNGKEYKCKVSNKALPLPEEKTISKAKGQPREPQVYTLPPSRDELTKNQVSLTCLVKGFYPSDIAVEWESNGQPENNYKTTPPVLDSDGSFFLYSKLTVDKSRWQQGNVFSCSVMHEALHNHYTQESLSLSP chain 3: DIVMTQSPLSLPVTPGEPASISCQASESLVHSNRNTYLHWYLQKPGQSPQLLIYKVSNRFSGVPDRFSGSGSGTDFTLKISRVEAEDVGVYYCSQNTHVPPTFGQGTKVEIERTVAAPSVFIFPPSDEQLKSGTASVVCLLNNFYPREAKVQWKVDNALQSGNSQESVTEQDSKDSTYSLSSTLTLSKADYEKHKVYACEVTHQGLSSPVTKSFNRGEC", "values": [
      {"measurement": "Kd", "setting": "[7]", "value": 11, "unit": "nM"}
    ]},
    {"binder": "GpH7-TA54/GpH7-B78/GpL16-k0 (antibody) chain 1: QVQLVQSGAEVKKPGASVTVSCKASGYTFTDYEMHWIRQPPGEGLEWIGAIDPKTGDTAYSESFQDRVTLTADKSTSTAYMELSSLTSEDTAVYYCTRFYSYTYWGQGTLVTVSSASTKGPSVFPLAPSSKSTSGGTAALGCLVKDYFPEPVTVSWNSGALTSGVHTFPAVLQSSGLYSLSSVVTVPSSSLGTQTYICNVNHKPSNTKVDKKVEPKSCDKTHTCPPCPAPEYLWGPDVFLFPPKPKDTLMISRTPEVTCVVVDVSHEDPEVKFNWYVDGVEVHNAKTKPREEQWNATYRVVSVLTVLHQDWLNGKEYKCKVSNKALPAPIEKTISKAKGQPREPQVYTLPPSRKELTKNQVSLTCLVKGFYPSDIAVEWESNGQPENNYKTTPPVLDSDGSFFLYSKLTVDKSRWQQGNVFSCSVMHEALHNRYTQKSLSLSP chain 2: QVQLVQSGAEVKKPGASVTVSCKASGYTFTDYEMHWIRQPPGEGLEWIGAIDPKTGDTAYSESFQDRVTLTADKSTSTAYMELSSLTSEDTAVYYCTRFYSYTYWGQGTLVTVSSASTKGPSVFPLAPSSKSTSGGTAALGCLVKDYFPEPVTVSWNSGALTSGVHTFPAVLQSSGLYSLSSVVTVPSSSLGTQTYICNVNHKPSNTKVDKKVEPKSCDKTHTCPPCPAPELLGGPDVFLFPPKPKDTLMISRTPEVTCVVVDVSHEDPEVKFNWYVDGVEVHNAKTKPREEQYNSTYRVVSVLTVLHQDWLNGKEYKCKVSNKALPLPEEKTISKAKGQPREPQVYTLPPSRDELTKNQVSLTCLVKGFYPSDIAVEWESNGQPENNYKTTPPVLDSDGSFFLYSKLTVDKSRWQQGNVFSCSVMHEALHNHYTQESLSLSP chain 3: DIVMTQSPLSLPVTPGEPASISCQASESLVHSNRNTYLHWYLQKPGQSPQLLIYKVSNRFSGVPDRFSGSGSGTDFTLKISRVEAEDVGVYYCSQNTHVPPTFGQGTKVEIERTVAAPSVFIFPPSDEQLKSGTASVVCLLNNFYPREAKVQWKVDNALQSGNSQESVTEQDSKDSTYSLSSTLTLSKADYEKHKVYACEVTHQGLSSPVTKSFNRGEC", "values": [
      {"measurement": "Kd", "setting": "[8]", "value": 1, "unit": "nM"}
    ]},
    {"binder": "GpH7-TA22/GpH7-TA58/GpL16-k0 (antibody) chain 1: QVQLVQSGAEVKKPGASVTVSCKASGYTFTDYEMHWIRQPPGEGLEWIGAIDPKTGDTAYSESFQDRVTLTADKSTSTAYMELSSLTSEDTAVYYCTRFYSYTYWGQGTLVTVSSASTKGPSVFPLAPSSKSTSGGTAALGCLVKDYFPEPVTVSWNSGALTSGVHTFPAVLQSSGLYSLSSVVTVPSSSLGTQTYICNVNHKPSNTKVDKKVEPKSCDKTHTCPPCPAPEYLWGPDVFLFPPKPKDTLMISRTPEVTCVVVDVSHEDPEVKFNWYVDGVEVHNAKTKPREEQYNATYRVVSVLTVLHQDWLNGKEYKCKVSNKALPAPIEKTISKAKGQPREPQVYTLPPSRKELTKNQVSLTCLVKGFYPSDIAVEWESNGQPENNYKTTPPVLDSDGSFFLYSKLTVDKSRWQQGNVFSCSVMHEALHNRYTQKSLSLSP chain 2: QVQLVQSGAEVKKPGASVTVSCKASGYTFTDYEMHWIRQPPGEGLEWIGAIDPKTGDTAYSESFQDRVTLTADKSTSTAYMELSSLTSEDTAVYYCTRFYSYTYWGQGTLVTVSSASTKGPSVFPLAPSSKSTSGGTAALGCLVKDYFPEPVTVSWNSGALTSGVHTFPAVLQSSGLYSLSSVVTVPSSSLGTQTYICNVNHKPSNTKVDKKVEPKSCDKTHTCPPCPAPELLGGPDVFLFPPKPKDTLMISRTPEVTCVVVDVSHEDPEVKFNWYVDGVEVHNAKTKPREEQWNSTYRVVSVLTVLHQDWLNGKEYKCKVSNKALPLPEEKTISKAKGQPREPQVYTLPPSRDELTKNQVSLTCLVKGFYPSDIAVEWESNGQPENNYKTTPPVLDSDGSFFLYSKLTVDKSRWQQGNVFSCSVMHEALHNHYTQESLSLSP chain 3: DIVMTQSPLSLPVTPGEPASISCQASESLVHSNRNTYLHWYLQKPGQSPQLLIYKVSNRFSGVPDRFSGSGSGTDFTLKISRVEAEDVGVYYCSQNTHVPPTFGQGTKVEIERTVAAPSVFIFPPSDEQLKSGTASVVCLLNNFYPREAKVQWKVDNALQSGNSQESVTEQDSKDSTYSLSSTLTLSKADYEKHKVYACEVTHQGLSSPVTKSFNRGEC", "values": [
      {"measurement": "Kd", "setting": "[8]", "value": 1.3, "unit": "nM"}
    ]}
  ]
}
